Measured values published in patent publication US20260184748A1, “COMPOSITIONS COMPRISING OCTADECANEUROPEPTIDES (ODN) AND SYNTHETIC DERIVATIVES THEREOF AND METHODS OF USE FOR MODULATION OF FOOD INTAKE, OBESITY, BODY WEIGHT, NAUSEA, AND EMESIS” (The Trustees of the University of Pennsylvania, priority 2022, published 2026).
Values belong to the binder of their own block, whether it stands above or below them. Where no end group is shown, it is not given here.

Key:
Experiment in all cases: cell-based or functional assay
PROKR1 = PROKR1 (UniProt Q8TCW9)
PROKR2 = PROKR2 (UniProt Q8NFJ6)
CCR4 = target: T1, CCR4 (UniProt P51679)
T1 sequence (looked up): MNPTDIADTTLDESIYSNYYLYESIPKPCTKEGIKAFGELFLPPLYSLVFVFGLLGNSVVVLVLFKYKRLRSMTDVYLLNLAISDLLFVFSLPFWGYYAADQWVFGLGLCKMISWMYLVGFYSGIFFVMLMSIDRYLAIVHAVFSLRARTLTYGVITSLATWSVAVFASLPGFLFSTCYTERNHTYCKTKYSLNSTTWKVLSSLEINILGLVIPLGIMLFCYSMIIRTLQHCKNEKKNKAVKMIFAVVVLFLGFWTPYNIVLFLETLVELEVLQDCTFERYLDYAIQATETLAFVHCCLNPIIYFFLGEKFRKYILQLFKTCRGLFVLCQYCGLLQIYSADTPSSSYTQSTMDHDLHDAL

CRHR1 = CRHR1 (UniProt P34998)
CRHR2 = target: T2, CRHR2 (UniProt Q13324)
T2 sequence (looked up): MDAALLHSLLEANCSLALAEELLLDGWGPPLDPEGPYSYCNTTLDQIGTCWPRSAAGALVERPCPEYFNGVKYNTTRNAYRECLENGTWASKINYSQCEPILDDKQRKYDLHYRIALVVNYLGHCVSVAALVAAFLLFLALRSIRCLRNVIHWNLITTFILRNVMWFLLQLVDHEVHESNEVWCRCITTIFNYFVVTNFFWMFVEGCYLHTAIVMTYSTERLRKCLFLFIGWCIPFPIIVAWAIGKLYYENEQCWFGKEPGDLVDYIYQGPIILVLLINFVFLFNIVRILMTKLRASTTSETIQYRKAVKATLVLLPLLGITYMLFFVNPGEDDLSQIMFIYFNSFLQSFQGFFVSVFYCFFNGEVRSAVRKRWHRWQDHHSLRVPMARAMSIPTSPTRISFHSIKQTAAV

F2R, P25116 = target: F2R, P25116
DRD2L, P14416 = target: DRD2L, P14416
CCR10 = target: T3, CCR10 (UniProt P46092)
T3 sequence (looked up): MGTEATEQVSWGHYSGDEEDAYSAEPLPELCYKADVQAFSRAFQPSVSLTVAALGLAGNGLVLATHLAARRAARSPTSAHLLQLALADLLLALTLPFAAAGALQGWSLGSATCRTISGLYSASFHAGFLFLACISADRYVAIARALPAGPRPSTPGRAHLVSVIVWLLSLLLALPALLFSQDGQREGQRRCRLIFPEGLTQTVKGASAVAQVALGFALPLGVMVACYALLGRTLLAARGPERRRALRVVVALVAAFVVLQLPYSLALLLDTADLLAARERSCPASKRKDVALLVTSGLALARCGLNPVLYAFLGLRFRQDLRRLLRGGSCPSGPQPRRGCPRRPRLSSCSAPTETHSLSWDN

UTR2 = target: T4, UTR2 (UniProt Q9UKP6)
T4 sequence (looked up): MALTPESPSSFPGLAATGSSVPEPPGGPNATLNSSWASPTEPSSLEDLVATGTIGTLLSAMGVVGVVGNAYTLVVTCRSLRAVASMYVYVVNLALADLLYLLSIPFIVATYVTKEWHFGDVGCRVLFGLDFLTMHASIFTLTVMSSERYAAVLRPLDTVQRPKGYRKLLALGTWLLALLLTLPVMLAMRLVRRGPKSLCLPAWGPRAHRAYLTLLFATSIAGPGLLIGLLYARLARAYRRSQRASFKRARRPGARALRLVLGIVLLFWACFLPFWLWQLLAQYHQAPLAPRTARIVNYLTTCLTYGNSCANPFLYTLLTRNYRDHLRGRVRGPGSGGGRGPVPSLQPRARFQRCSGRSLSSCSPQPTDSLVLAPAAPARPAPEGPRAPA

PPYR1 = PPYR1 (UniProt P50391)
CCR8 = CCR8 (UniProt P51685)
NMU1R = NMU1R (UniProt Q9HB89)
NPBWR2 = NPBWR2 (UniProt P48146)
NPBWR1 = target: T5, NPBWR1 (UniProt P48145)
T5 sequence (looked up): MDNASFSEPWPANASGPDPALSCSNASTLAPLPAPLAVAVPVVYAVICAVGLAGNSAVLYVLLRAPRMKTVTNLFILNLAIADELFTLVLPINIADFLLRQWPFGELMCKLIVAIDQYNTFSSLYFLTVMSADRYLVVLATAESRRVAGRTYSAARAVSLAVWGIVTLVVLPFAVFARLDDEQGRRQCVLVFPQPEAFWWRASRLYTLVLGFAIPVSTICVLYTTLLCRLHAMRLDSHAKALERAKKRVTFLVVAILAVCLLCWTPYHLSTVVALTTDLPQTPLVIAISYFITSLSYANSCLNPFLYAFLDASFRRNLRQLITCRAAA

GPR103 = GPR103 (UniProt Q96P65)
MCHR1 = MCHR1 (UniProt Q99705)
MCHR2 = MCHR2 (UniProt Q969V1)
CXCR3 = CXCR3 (UniProt P49682)
NPSR1B = target: T6, NPSR1B (UniProt Q6W5P4)
T6 sequence (looked up): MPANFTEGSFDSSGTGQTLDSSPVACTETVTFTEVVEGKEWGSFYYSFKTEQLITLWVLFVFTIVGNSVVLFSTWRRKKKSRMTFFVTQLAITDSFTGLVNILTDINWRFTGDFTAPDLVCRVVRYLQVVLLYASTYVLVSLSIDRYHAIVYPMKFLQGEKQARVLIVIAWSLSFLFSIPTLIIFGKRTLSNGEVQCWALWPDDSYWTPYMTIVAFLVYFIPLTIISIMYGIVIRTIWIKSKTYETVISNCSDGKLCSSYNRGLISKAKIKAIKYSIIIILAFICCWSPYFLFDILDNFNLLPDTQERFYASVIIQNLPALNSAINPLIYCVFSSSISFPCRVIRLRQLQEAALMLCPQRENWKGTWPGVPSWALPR

CXCR5 = CXCR5 (UniProt P32302)
CXCR6 = CXCR6 (UniProt O00574)
Chain of CXCR6 (O00574 whole entry): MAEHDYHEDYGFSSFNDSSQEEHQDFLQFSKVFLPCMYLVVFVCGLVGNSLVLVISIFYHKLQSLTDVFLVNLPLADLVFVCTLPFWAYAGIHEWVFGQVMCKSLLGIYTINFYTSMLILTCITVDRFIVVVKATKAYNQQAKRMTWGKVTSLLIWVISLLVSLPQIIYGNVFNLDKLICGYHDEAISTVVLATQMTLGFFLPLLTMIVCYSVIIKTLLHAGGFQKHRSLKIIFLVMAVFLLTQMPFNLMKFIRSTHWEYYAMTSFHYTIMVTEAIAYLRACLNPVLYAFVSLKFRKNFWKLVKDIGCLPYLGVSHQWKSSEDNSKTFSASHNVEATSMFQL

Chain of F2R, P25116 (P25116 22-425): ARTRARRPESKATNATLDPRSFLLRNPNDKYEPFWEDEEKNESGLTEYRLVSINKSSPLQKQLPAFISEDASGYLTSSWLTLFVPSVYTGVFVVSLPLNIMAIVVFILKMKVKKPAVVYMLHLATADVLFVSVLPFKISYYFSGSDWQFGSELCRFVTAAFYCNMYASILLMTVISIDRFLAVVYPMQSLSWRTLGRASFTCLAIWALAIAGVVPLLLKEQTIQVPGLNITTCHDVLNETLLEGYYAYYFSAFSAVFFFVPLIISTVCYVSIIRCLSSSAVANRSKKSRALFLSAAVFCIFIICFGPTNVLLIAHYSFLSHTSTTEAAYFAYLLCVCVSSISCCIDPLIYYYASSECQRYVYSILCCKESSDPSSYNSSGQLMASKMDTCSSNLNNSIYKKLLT
Chain of PPYR1 (P50391 whole entry): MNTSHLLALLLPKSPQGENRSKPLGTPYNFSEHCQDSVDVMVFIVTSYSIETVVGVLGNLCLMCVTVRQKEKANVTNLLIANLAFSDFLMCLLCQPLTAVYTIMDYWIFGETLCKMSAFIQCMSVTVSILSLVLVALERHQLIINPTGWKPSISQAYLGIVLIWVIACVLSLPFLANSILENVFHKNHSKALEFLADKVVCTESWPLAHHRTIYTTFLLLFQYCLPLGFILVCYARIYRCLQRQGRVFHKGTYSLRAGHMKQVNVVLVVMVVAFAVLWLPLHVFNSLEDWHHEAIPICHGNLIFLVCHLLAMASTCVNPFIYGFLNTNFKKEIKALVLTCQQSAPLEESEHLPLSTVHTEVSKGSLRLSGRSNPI
Chain of GPR103 (Q96P65 whole entry): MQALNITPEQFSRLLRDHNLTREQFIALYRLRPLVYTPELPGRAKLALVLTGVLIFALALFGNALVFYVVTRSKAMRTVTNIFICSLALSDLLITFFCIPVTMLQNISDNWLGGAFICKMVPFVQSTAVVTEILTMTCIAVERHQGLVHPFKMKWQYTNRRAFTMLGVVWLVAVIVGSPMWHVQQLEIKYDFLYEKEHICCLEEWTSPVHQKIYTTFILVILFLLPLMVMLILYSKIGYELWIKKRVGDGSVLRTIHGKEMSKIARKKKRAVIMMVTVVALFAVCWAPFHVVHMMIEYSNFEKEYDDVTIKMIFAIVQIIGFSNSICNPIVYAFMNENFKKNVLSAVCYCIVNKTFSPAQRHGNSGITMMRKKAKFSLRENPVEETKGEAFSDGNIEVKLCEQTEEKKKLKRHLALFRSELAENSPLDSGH
Chain of PROKR1 (Q8TCW9 whole entry): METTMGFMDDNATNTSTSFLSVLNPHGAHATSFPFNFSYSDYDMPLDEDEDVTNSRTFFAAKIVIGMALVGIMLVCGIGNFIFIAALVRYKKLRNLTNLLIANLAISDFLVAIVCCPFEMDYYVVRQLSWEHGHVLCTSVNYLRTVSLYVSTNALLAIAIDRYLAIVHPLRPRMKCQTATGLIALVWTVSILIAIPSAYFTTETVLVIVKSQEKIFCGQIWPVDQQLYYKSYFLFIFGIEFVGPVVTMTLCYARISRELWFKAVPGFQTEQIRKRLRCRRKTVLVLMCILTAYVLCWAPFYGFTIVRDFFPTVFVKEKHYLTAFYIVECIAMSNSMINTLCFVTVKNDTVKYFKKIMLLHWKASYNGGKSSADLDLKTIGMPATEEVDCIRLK
Chain of CXCR3 (P49682 whole entry): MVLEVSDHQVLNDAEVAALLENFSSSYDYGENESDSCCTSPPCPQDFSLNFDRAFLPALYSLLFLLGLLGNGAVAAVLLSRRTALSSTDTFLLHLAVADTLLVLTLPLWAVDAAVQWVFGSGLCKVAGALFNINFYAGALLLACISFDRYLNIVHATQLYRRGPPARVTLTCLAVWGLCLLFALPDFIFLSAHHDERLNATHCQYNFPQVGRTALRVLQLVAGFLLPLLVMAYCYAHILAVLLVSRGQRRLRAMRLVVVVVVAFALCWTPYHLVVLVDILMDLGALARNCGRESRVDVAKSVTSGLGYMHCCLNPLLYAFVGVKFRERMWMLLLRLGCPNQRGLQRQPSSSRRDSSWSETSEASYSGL
Chain of CXCR5 (P32302 whole entry): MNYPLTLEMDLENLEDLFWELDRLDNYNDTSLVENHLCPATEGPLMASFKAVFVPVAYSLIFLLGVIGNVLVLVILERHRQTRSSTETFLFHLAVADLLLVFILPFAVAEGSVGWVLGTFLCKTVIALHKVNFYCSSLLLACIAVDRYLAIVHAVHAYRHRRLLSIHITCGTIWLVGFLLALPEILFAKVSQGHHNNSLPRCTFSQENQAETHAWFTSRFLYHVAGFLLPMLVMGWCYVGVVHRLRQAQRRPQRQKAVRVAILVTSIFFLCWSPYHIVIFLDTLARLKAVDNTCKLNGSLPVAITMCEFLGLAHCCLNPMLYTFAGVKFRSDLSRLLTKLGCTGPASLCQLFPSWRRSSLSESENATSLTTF
Chain of MCHR2 (Q969V1 whole entry): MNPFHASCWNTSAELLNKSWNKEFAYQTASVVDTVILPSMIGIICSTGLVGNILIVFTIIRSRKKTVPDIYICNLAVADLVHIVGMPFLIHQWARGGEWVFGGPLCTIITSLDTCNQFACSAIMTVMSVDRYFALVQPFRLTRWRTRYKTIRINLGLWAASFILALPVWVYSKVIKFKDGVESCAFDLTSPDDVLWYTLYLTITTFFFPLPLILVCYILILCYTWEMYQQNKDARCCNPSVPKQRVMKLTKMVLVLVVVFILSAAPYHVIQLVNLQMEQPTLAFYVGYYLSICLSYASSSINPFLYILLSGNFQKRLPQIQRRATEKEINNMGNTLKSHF
Chain of MCHR1 (Q99705 whole entry): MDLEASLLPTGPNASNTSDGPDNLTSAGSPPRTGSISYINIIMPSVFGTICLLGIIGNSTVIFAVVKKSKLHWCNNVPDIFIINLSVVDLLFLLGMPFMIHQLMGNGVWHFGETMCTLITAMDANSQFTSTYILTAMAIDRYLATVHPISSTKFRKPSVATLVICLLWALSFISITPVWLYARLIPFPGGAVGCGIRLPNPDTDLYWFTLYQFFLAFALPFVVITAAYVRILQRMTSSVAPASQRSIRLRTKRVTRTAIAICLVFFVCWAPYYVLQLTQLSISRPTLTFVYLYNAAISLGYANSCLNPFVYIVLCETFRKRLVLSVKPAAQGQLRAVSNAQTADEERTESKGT
Chain of PROKR2 (Q8NFJ6 whole entry): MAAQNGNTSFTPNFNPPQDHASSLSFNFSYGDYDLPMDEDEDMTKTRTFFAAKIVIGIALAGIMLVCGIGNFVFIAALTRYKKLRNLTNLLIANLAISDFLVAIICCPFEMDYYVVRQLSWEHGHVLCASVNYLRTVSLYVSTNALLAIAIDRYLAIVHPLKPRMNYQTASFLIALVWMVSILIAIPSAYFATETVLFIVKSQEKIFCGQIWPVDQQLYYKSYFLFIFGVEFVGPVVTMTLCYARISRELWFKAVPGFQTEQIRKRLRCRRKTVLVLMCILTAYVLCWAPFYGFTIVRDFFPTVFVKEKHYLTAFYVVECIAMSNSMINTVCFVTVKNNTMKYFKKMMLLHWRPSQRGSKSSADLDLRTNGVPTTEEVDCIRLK
Chain of NMU1R (Q9HB89 whole entry): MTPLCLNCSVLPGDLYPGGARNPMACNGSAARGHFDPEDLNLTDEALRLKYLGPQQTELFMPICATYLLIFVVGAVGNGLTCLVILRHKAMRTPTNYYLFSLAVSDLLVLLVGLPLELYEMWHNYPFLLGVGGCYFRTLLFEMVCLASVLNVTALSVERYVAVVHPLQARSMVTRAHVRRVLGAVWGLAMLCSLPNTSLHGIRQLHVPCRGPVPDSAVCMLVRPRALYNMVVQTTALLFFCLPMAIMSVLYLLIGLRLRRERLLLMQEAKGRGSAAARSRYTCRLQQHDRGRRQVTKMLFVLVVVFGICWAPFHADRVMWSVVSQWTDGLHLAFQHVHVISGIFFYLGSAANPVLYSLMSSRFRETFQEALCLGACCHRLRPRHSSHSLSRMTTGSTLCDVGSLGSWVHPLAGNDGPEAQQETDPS
Chain of NPBWR2 (P48146 whole entry): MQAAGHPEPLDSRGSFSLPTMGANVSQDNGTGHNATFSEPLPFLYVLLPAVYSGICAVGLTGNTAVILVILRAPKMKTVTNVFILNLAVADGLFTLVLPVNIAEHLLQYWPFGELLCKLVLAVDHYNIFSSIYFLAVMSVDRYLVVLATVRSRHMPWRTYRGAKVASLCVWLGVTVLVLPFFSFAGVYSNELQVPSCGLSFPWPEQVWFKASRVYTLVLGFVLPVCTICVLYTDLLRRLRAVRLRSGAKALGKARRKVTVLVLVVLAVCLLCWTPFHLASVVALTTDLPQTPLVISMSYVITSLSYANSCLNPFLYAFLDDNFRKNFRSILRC
Chain of CRHR1 (P34998 24-415 limits assumed): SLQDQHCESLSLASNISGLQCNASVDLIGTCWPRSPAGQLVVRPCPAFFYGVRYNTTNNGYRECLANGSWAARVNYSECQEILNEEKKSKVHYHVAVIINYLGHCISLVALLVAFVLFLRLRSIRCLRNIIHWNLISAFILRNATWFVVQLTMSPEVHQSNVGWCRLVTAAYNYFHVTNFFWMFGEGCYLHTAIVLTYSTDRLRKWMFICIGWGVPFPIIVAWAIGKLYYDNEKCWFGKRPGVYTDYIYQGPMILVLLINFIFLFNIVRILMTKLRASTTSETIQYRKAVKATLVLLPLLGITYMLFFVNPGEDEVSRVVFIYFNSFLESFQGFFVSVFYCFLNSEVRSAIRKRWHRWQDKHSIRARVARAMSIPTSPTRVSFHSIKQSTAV

EC50 (RC50), arrestin, agonist mode (PROKR1): 17.7 nM
EC80, arrestin, agonist mode (PROKR1): 53.7 nM
EC50 (RC50), arrestin, agonist mode (PROKR2): 10.6 nM
EC80, arrestin, agonist mode (PROKR2): 30 nM
B1: EG VEGF (ligand, UniProt P58294 20-105, looked up)
chain: AVITGACERDVQCGAGTCCAISLWLRGLRMCTPLGREGEECHPGSHKVPFFRKRKHHTCPCLPNLLCSRFPDGRYRCSMDLKNINF

EC50 (RC50), arrestin, agonist mode (CCR4): 3.44 nM
EC80, arrestin, agonist mode (CCR4): 19.7 nM
B2: CCL22 (ligand, UniProt O00626 25-93, looked up)
chain: GPYGANMEDSVCCRDYVRYRLPLRVVKHFYWTSDSCPRPGVVLLTFRDKEICADPRVPWVKMILNKLSQ

EC50 (RC50), arrestin, agonist mode (UTR2): 1.19 nM
EC80, arrestin, agonist mode (UTR2): 4.22 nM
Binder: ETPDCFWKYCV (peptide, UniProt O95399 114-124, looked up) [Urotensin II]

EC50 (RC50), arrestin, agonist mode (PPYR1): 1.5 nM
EC80, arrestin, agonist mode (PPYR1): 5 nM
Binder: APLEPVYPGDNATPEQMAQYAADLRRYINMLTRPRY (peptide, UniProt P01298 30-65, looked up) [Pancreatic Polypeptide]

EC50 (RC50), arrestin, agonist mode (CCR8): 45.8 nM
EC80, arrestin, agonist mode (CCR8): 159 nM
B4: CCL1 (ligand, UniProt P22362 24-96, looked up)
chain: KSMQVPFSRCCFSFAEQEIPLRAILCYRNTSSICSNEGLIFKLKRGKEACALDTVGWVQRHRKMLRHCPSKRK

EC50 (RC50), arrestin, agonist mode (NPBWR2): 3.62 nM
EC80, arrestin, agonist mode (NPBWR2): 12.2 nM
EC50 (RC50), arrestin, agonist mode (NPBWR1): 2.17 nM
EC80, arrestin, agonist mode (NPBWR1): 8.01 nM
Binder: WYKHVASPRYHTVGRAAGLLMGL (peptide, UniProt Q8N729 33-55, looked up) [Neuropeptide W23]

EC50 (RC50), arrestin, agonist mode (CXCR3): 12 nM
EC80, arrestin, agonist mode (CXCR3): 17.9 nM
B5: CXCL11 (ligand, UniProt O14625 22-94, looked up)
chain: FPMFKRGRCLCIGPGVKAVKVADIEKASIMYPSNNCDKIEVIITLKENKGQRCLNPKSKQARLIIKKVERKNF

EC50 (RC50), arrestin, agonist mode (NPSR1B): 23.6 nM
EC80, arrestin, agonist mode (NPSR1B): 45.4 nM
Binder: SFRNGVGTGMKKTSFQRAKS (peptide, UniProt P0C0P6 70-89, looked up) [Neuropeptide S]

EC50 (RC50), arrestin, agonist mode (CXCR5): 21 nM
EC80, arrestin, agonist mode (CXCR5): 61.2 nM
B6: CXCL13 (ligand, UniProt O43927 23-109, looked up)
chain: VLEVYYTSLRCRCVQESSVFIPRRFIDRIQILPRGNGCPRKEIIVWKKNKSIVCVDPQAEWIQRMMEVLRKRSSSTLPVPVFKRKIP

Continued, binder first:

Binder: QGPPISIDLSLELLRKMIEIEKQEKEKQQAANNRLLLDTI (peptide, UniProt P01144 1-40, looked up) [Sauvagine]
EC50 (RC50), arrestin, agonist mode (CRHR1): 3.28 nM
EC80, arrestin, agonist mode (CRHR1): 10.3 nM
EC50 (RC50), arrestin, agonist mode (CRHR2): 5.99 nM
EC80, arrestin, agonist mode (CRHR2): 24.5 nM

Binder: TFLLR-NH2 [TFLLR-NH2]
EC50 (RC50), arrestin, agonist mode (F2R, P25116): 14500 nM
EC80, arrestin, agonist mode (F2R, P25116): 28700 nM

Binder: QATVGDVNTDRPGLLDLK (also: synthesised on Rink amide resin, C-terminal amide not given here outright) [octadecaneuropeptide (ODN)]
% Activity, arrestin, antagonist mode, 2.5 uM (F2R, P25116): -17%
% Activity, arrestin, antagonist mode, 2.5 uM (DRD2L, P14416): -16.8%

B3: CCL27 (ligand, UniProt Q9Y4X3 25-112, looked up)
chain: FLLPPSTACCTQLYRKPLSDKLLRKVIQVELQEADGDCHLQAFVLHLAQRSICIHPQNPSLSQWFEHQERKLHGTLPKLNFGMLRKMG
EC50 (RC50), arrestin, agonist mode (CCR10): 26.3 nM
EC80, arrestin, agonist mode (CCR10): 109 nM

Binder: FRVDEEFQSPFASQSRGYFLFRPRN (peptide, UniProt P48645 142-166, looked up) [Neuromedin U-25]
EC50 (RC50), arrestin, agonist mode (NMU1R): 1.43 nM
EC80, arrestin, agonist mode (NMU1R): 3.68 nM

Binder: TSGPLGNLAEELNGYSRKKGGFSFRF (peptide, UniProt P83859 108-133, looked up) [QRFP-26]
EC50 (RC50), arrestin, agonist mode (GPR103): 10 nM
EC80, arrestin, agonist mode (GPR103): 27.1 nM

Binder: DFDMLRCMLGRVYRPCWQV (peptide, UniProt P20382 147-165, looked up) [MCH]
EC50 (RC50), arrestin, agonist mode (MCHR1): 167 nM
EC80, arrestin, agonist mode (MCHR1): 444 nM
EC50 (RC50), arrestin, agonist mode (MCHR2): 5.51 nM
EC80, arrestin, agonist mode (MCHR2): 20.2 nM

B7: CXCL16 (ligand, UniProt Q9H2A7 30-118, looked up)
chain: NEGSVTGSCYCGKRISSDSPPSVQFMNRLRKHLRAYHRCLYYTRFQLLSWSVCGGNKDPWVQELMSCLDLKECGHAYSGIVAHQKHLLP
EC50 (RC50), arrestin, agonist mode (CXCR6): 6.81 nM
EC80, arrestin, agonist mode (CXCR6): 21 nM
